B1: TRIM43 (parent)
chain: NNSWIRKNSTMVNSEDIFLLLCLK

Variants of: B1
Test: protein stability index of a GFP-peptide fusion (GPS, HEK-293T) (PSI 1-6); higher = more stable
Conditions: c terminus: a fixed tail appended
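Also: lentivirally expressed fusions sorted by FACS into six bins by GFP to DsRed ratio, PSI derived from sequencing read proportions per bin multiplied by bin number.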

Variant	protein stability index
S3F	1.95
S3W	3.13
S3C	3.41
S3N	2.48
S3P	2.4
S3M	3.38
S3Y	3.59
S3A	3.59
S3R	2.59
S3E	3.25
S3I	2.78
S3V	2.53
S3Q	3.18
S3H	2.64
S3T	4.59
S3D	2.66
S3K	2.5
S3L	2.9
I5E	3.23
I5V	2.27
I5T	3.2
I5M	2.4
I5H	3.14
I5R	2.13

Variant	protein stability index
I5Y	2.56
I5S	3.64
I5N	3.07
I5C	2.8
I5W	4.27
I5Q	3.02
I5P	3.31
I5D	2.61
I5L	2.8
I5A	2.47
I5F	2.91
I5K	3.55
M11C	2.06
M11E	1.74
M11A	2.1
M11D	2.95
N2E	3.2
N2S	2.48
N2V	2.46
N2G	3.56
N2C	2.89
N2R	2.93
N2I	2.32
N2D	1.88

Variant	protein stability index
N2T	2.14
N2P	2.24
N2Y	3.58
N2W	2.65
N2M	3.25
N2Q	2.59
N2H	2.3
N2L	2.46
N2F	3.5
T10N	2.17
T10M	2.48
T10S	3.33
T10Y	3.22
T10D	1.98
T10F	3.41
T10G	2.9
T10K	3.25
T10I	4.37
T10R	2.52
T10E	2.91
T10V	1.95
T10H	3.31
T10L	2.55
T10Q	3.06

Variant	protein stability index
T10W	4.55
T10C	2.73
T10P	2.82
W4I	1.99
W4P	2.73
W4Y	3.95
W4K	2.72
W4M	2.59
W4N	2.4
W4R	3.35
W4L	1.6
W4G	2.06
W4C	3.11
W4S	3.31
W4V	3
W4Q	2.62
W4D	2.64
W4T	2.88
W4F	2.91
W4A	1.55
W4H	3
S9V	2.19
S9T	2.62
S9K	2.54

Variant	protein stability index
S9Q	2.69
S9C	2.28
S9Y	3.67
S9D	3.01
S9I	3.83
S9G	2.66
S9E	2.68
S9A	2.99
S9M	2.34
S9N	2.49
S9P	3.63
S9F	2.03
S9L	3.2
S9W	4.39
S9H	2.91
S9R	2.62
N1Y	2.79
K7T	2.16
K7L	2.55
K7C	2.73
K7P	3.02
K7D	2.54
K7F	2.97
K7A	4.36

Variant	protein stability index
K7M	2.73
K7G	3.14
K7W	2.95
K7R	4.2
K7Y	2.9
K7I	2.71
K7H	2.76
K7Q	2.47
K7N	2.32
K7E	2.84
K7V	2.61
K7S	2.95
R6M	2.76
R6F	3.74
R6G	2.76
R6K	3.09
R6Y	3.78
R6V	2.73
R6S	2.97
R6N	3.63
R6I	2.66
R6D	3.82
R6E	1.89
R6A	2.27

Variant	protein stability index
R6W	3.13
R6C	3.31
R6L	2.03
R6P	2.75
R6H	3.75
N8I	2.73
N8C	2.24
N8Q	2.93
N8S	2.69
N8P	2.28
N8R	3.47
N8G	2.72
N8Y	3.85
N8E	3.74
N8H	1.79
N8V	1.94
N8W	2.99
N8D	3.07
N8M	2.46
N8T	3.13
N8K	2.4
N8L	2.61
N8A	2.9
